For assay [1], the target named is citrullinated histone H2A and H4 present in pre-NETs (A23187-stimulated human neutrophils) (human) (UniProt P0C0S8). Nature of the assay: flow cytometry on fixed and permeabilized leukocytes of A23187-stimulated whole blood; detection with goat-anti-human IgG-Alexa Fluor 488. On the technique in general: Flow cytometry measures light scatter and fluorescence of single cells or particles in a stream.

The target is the same in assay [2]. Put plainly: cell-based or functional assay.
Assay [3] has the same target. Nature of the assay: flow cytometry on fixed and permeabilized leukocytes of A23187-stimulated whole blood; detection with goat-anti-human IgG-Alexa Fluor 488; negative control, same value as without antibody.

In assay [1], CIT-013 (antibody) displayed a % pre-NETs (FITC+ of CD66b+ leukocytes, indicating antibody binding) of 15%. Also, in assay [2], the NET-inhibitory effect compared to No Ab at 210 min (live imaging fluorescence microscopy, A23187-stimulated neutrophils) came to 66% and the NETs after 210 min (percentage of neutrophils at t=0) is 8%.

In turn, isotype control antibody came in with a % pre-NETs (FITC+ of CD66b+ leukocytes, indicating antibody binding) in assay [3] of 5%.

Source of the values: patent publication US20240272145A1.
